According to paper PMC11849073, “Specific recognition mechanism of an antibody to sulfated tyrosine and its potential use in biological research” (The Journal of Biological Chemistry, 2025):

What was measured:
[1] = target: BA8 Fab Y57 F mutant (heavy chain) (rabbit); assay: SPR; Biacore 8K; each Fab immobilised on a CM5 chip by amine coupling (pH 5.5, about 3000 RU); peptides as analytes, 2 to 162 nM (20 nM to 1620 nM for the R34 A, S52 A and Y57 A mutants of Fig. 3C); PBS with 0.005% Tween 20; 30 μl/min; global fitting
Sequence of BA8 Fab Y57 F mutant (heavy chain) (rabbit) (heavy, as listed by the source, chain 1 of 2): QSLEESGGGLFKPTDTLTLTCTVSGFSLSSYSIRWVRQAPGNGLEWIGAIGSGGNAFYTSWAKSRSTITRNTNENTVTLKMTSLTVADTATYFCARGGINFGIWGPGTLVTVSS
Sequence of BA8 Fab Y57 F mutant (heavy chain) (rabbit) (light, as listed by the source, chain 2 of 2): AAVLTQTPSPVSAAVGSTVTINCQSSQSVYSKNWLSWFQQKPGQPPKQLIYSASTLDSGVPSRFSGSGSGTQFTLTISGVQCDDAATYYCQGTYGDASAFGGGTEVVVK

[2] = target: BA8 Fab N55 A mutant (heavy chain) (rabbit); assay: as above
Sequence of BA8 Fab N55 A mutant (heavy chain) (rabbit) (heavy, as listed by the source, chain 1 of 2): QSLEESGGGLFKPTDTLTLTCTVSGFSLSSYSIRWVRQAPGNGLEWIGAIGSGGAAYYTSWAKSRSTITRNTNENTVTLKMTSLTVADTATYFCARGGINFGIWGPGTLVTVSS

[3] = target: BA8 Fab LC S98 A mutant (light chain) (rabbit); assay: as above
Sequence of BA8 Fab LC S98 A mutant (light chain) (rabbit) (heavy, as listed by the source, chain 1 of 2): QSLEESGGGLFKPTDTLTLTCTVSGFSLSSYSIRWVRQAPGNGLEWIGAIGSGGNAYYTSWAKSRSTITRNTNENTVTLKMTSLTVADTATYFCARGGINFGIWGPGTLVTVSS
Sequence of BA8 Fab LC S98 A mutant (light chain) (rabbit) (light, as listed by the source, chain 2 of 2): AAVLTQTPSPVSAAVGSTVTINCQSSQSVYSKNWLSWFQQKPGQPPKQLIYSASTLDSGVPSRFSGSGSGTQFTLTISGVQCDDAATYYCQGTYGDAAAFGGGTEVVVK

[4] = target: BA8 Fab S30 A mutant (heavy chain) (rabbit); assay: as above
Sequence of BA8 Fab S30 A mutant (heavy chain) (rabbit) (heavy, as listed by the source, chain 1 of 2): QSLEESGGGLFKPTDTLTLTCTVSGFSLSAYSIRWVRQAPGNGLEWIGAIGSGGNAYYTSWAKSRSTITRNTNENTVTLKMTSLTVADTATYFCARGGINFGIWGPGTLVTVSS

[5] = target: BA8 Fab Y31 A mutant (heavy chain) (rabbit); assay: as above
Sequence of BA8 Fab Y31 A mutant (heavy chain) (rabbit) (heavy, as listed by the source, chain 1 of 2): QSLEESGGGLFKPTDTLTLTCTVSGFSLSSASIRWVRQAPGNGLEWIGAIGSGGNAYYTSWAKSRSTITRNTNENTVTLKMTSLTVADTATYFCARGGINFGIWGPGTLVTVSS

[6] = target: BA8 Fab Y57 A mutant (heavy chain) (rabbit); assay: as above
Sequence of BA8 Fab Y57 A mutant (heavy chain) (rabbit) (heavy, as listed by the source, chain 1 of 2): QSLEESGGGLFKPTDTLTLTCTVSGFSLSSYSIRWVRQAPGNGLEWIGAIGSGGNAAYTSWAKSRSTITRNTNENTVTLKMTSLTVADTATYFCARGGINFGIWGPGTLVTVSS

[7] = target: BA8 Fab W46 A mutant (heavy chain) (rabbit); assay: as above
Sequence of BA8 Fab W46 A mutant (heavy chain) (rabbit) (heavy, as listed by the source, chain 1 of 2): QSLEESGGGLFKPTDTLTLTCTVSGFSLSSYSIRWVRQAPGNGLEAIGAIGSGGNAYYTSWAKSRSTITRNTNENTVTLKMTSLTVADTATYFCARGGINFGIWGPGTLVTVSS

[8] = target: BA8 Fab S32 A mutant (heavy chain) (rabbit); assay: as above
Sequence of BA8 Fab S32 A mutant (heavy chain) (rabbit) (heavy, as listed by the source, chain 1 of 2): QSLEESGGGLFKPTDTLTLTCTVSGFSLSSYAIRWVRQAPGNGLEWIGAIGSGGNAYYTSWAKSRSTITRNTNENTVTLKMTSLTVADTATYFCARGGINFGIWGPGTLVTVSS

[9] = target: BA8 Fab Y57 F mutant (heavy chain) (rabbit); assay: ITC; MicroCal PEAQ-ITC; 10 μM BA8 Fab in the cell, 100 μM CCR5 N-terminal peptide in the syringe; PBS; 25 °C (297 K in the table's footnote); one set of sites
[10] = target: BA8 Fab N55 A mutant (heavy chain) (rabbit); assay: as above
[11] = target: BA8 Fab LC S98 A mutant (light chain) (rabbit); assay: as above
[12] = target: BA8 Fab S30 A mutant (heavy chain) (rabbit); assay: as above
[13] = target: BA8 Fab Y31 A mutant (heavy chain) (rabbit); assay: as above
[14] = target: BA8 Fab Y57 A mutant (heavy chain) (rabbit); assay: as above
[15] = target: BA8 Fab S52 A mutant (heavy chain) (rabbit); assay: as above
Sequence of BA8 Fab S52 A mutant (heavy chain) (rabbit) (heavy, as listed by the source, chain 1 of 2): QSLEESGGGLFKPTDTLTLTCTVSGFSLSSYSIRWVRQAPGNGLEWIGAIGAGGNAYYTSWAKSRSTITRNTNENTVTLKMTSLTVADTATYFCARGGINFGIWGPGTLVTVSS

[16] = target: BA8 Fab W46 A mutant (heavy chain) (rabbit); assay: as above
[17] = target: BA8 Fab S32 A mutant (heavy chain) (rabbit); assay: as above

Kd [1]: 2.36 nM | Kd [2]: 1.8 nM | Kd [3]: 2.41 nM | Kd [4]: 1.44 nM | Kd [5]: 18.6 nM | Kd [6]: 446 nM | Kd [7]: 21.8 nM | Kd [8]: 1.94 nM | Kd [9]: 10.5 nM | dH [9]: -25 kcal/mol | stoichiometry N [9]: 0.896 sites | dH [10]: -27.6 kcal/mol | stoichiometry N [10]: 0.844 sites | dH [11]: -26.2 kcal/mol | stoichiometry N [11]: 0.924 sites | dH [12]: -25.8 kcal/mol | stoichiometry N [12]: 0.892 sites | Kd [13]: 4.41 nM | dH [13]: -22.8 kcal/mol | stoichiometry N [13]: 0.839 sites | Kd [14]: 73.7 nM | dH [14]: -21.7 kcal/mol | stoichiometry N [14]: 0.854 sites | Kd [15]: 726 nM | dH [15]: -16.6 kcal/mol | stoichiometry N [15]: 0.796 sites | Kd [16]: 6.1 nM | dH [16]: -27.2 kcal/mol | stoichiometry N [16]: 0.824 sites | dH [17]: -26 kcal/mol | stoichiometry N [17]: 0.903 sites
Substance: sulfated N-terminal peptide of CCR5 (Pro8 to Ser18 with sulfated Tyr10, Tyr14 and Tyr15)
